Data on 1 protein can be found in FireProtDB (doi:10.1006/jmbi.1993.1508).

The conditions of this data set: Bacillus amyloliquefaciens; pH 6.3; 25 °C; Urea; Fluorescence; MES 50 mM; reversible: yes; whole UniProt chain shown.

B1: Ribonuclease wild type, P00648 (protein)
chain: MMKMEGIALKKRLSWISVCLLVLVSAAGMLFSTAAKTETSSHKAHTEAQVINTFDGVADYLQTYHKLPDNYITKSEAQALGWVASKGNLADVAPGKSIGGDIFSNREGKLPGKSGRTWREADINYTSGFRNSDRILYSSDWLIYKTTDHYQTFTKIR
With B1, the denaturant m value was determined as 1.92 kcal/mol/M, the “denaturant midpoint (higher = more stable)” value stood at 4.58 M and the unfolding free energy worked out at 8.82 kcal/mol.
